Measured values reported in patent publication US20250136696A1 (HARBOUR BIOMED SHANGHAI, published 2025).

T1: human B7-H7 on the cell surface (human, UniProt Q9UM44 23-414)
T1 construct: whole, on cells; also called hB7-H7; hu B7-H7
T1 sequence (looked up): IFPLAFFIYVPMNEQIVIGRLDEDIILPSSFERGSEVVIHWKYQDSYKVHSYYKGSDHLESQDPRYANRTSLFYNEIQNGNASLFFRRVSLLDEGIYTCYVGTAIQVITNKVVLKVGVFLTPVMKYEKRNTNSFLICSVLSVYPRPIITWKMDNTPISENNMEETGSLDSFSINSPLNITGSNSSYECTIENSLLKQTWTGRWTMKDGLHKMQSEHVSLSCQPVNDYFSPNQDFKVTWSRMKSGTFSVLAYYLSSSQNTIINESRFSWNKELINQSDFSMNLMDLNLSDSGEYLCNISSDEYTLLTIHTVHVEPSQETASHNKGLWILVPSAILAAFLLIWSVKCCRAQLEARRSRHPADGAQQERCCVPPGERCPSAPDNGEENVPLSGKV


Columns and labels:
[1] = molecular target: T1, human B7-H7 on the cell surface; assay: flow cytometry, LS180 cells
Method: This example was intended to study the in vitro activity of H2L2 monoclonal antibodies against human B7-H7 in binding to human/cynomolgus monkey B7-H7. Since homologous molecules of B7-H7 were not present in mice, the detection was not performed. […] The cells were adjusted to a cell density of 1×10⁶ cells/mL, respectively. The cells were seeded in a 96-well V-bottom plate (Corning, #3894) at 100 μL/well, and the antibody to be tested at 2× final concentration with 3-fold concentration gradient dilution was then added at 100 μL/well. The cells were incubated at 4° C. for 2 hours in the dark. After the incubation, the cells were rinsed twice by adding pre-chilled PBS containing 2% BSA at 100 μl/well, and centrifuged at 500 g at 4° C. for 5 minutes, and the supernatant was discarded. […] The cells were washed twice by adding pre-chilled PBS containing 2% BSA at 100 μL/well, and centrifuged at 500 g at 4° C. for 5 minutes, and the supernatant was discarded. Finally, the cells were resuspended in pre-chilled PBS containing 2% BSA at 200 μL/well, and the fluorescence signal values were read using an ACEA Novocyte3000 flow cytometer.

[2] = molecular target: T1, human B7-H7 on the cell surface; assay: flow cytometry on HEK-293/hB7-H7 cells after 0-14 days in 90% human serum at 37 C
Method: The cells were adjusted to a cell density of 1×10⁶ cells/mL, respectively. The cells were seeded in a 96-well V-bottom plate (Corning, #3894) at 100 μL/well, and the antibody to be tested at 2× final concentration with 3-fold concentration gradient dilution was then added at 100 μL/well. The cells were incubated at 4° C. for 2 hours in the dark. After the incubation, the cells were rinsed twice by adding pre-chilled PBS containing 2% BSA at 100 μL/well, and centrifuged at 500 g at 4° C. for 5 minutes, and the supernatant was discarded. […] The cells were washed twice by adding pre-chilled PBS containing 2% BSA at 100 μL/well, and centrifuged at 500 g at 4° C. for 5 minutes, and the supernatant was discarded. Finally, the cells were resuspended in pre-chilled PBS containing 2% BSA at 200 μL/well, and the fluorescence signal values were read using an ACEA Novocyte3000 flow cytometer.

Binder | EC50 [1] | Maximum MFI [1] | EC50 (read off the curve) [2]
PR003264 (antibody, human IgG1, kappa, Human IgG1; also called 77G10D3) heavy: not shown light: DIQLTQSPSFLSASVGDRVTITCRASQGISSYFAWYQQKPGKAPKLLIYAASTLQSGVPSRFSGSGSGTEFTLTISSLQPEDFATYYCQHLNRYPWTFGQGTKVEIKRTVAAPSVFIFPPSDEQLKSGTASVVCLLNNFYPREAKVQWKVDNALQSGNSQESVTEQDSKDSTYSLSSTLTLSKADYEKHKVYACEVTHQGLSSPVTKSFNRGEC | 2.2 nM | 21800 MFI | 
PR004263 (antibody, human IgG1, kappa, L234A L235A, Variant of PR003264; Human IgG1 with LALA mutation in Fc) heavy: not shown light: DIQLTQSPSFLSASVGDRVTITCRASQGISSYFAWYQQKPGKAPKLLIYAASTLQSGVPSRFSGSGSGTEFTLTISSLQPEDFATYYCQHLNRYPWTFGQGTKVEIKRTVAAPSVFIFPPSDEQLKSGTASVVCLLNNFYPREAKVQWKVDNALQSGNSQESVTEQDSKDSTYSLSSTLTLSKADYEKHKVYACEVTHQGLSSPVTKSFNRGEC | 3.08 nM | 24000 MFI | ~1 nM
